{"source": "paper PMC7851962", "target": "GFP-EB1-A7 (UniProt Q15691)", "sequence (Q15691 whole entry)": "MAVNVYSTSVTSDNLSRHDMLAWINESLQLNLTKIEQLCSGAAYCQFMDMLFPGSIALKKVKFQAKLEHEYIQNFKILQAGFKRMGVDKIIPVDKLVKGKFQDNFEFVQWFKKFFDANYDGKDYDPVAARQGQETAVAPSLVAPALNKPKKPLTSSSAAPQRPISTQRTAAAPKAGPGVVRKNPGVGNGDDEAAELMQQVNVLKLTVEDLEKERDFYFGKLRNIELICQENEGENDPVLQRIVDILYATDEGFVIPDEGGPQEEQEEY", "test": "co-IP", "data": [{"binder": "Arl4D^WT expressed in COS-7 cells (natural protein) MGNHLTEMAPTASSFLPHFQALHVVVIGLDSAGKTSLLYRLKFKEFVQSVPTKGFNTEKIRVPLGGSRGITFQVWDVGGQEKLRPLWRSYTRRTDGLVFVVDAAEAERLEEAKVELHRISRASDNQGVPVLVLANKQDQPGALSAAEVEKRLAVRELAAATLTHVQGCSAVDGLGLQQGLERLYEMILKRKKAARGGKKRR", "values": [{"measurement": "percent of the amount co-immunoprecipitated with WT EB1", "result": 50, "unit": "%"}]}]}
